Results taken from US20130108548A1 (VECT HORUS, published 2013).
Positions of bridges follow the written chain, without caps; N, C: chain ends. Non-standard residues stand in square brackets, D forms with d. No end group written: not given here.

Columns and labels:
[1] = molecular target: rat LDLR on rat brain capillary endothelial cells (RBCEC) (rat) (UniProt P35952); assay: cell-based or functional assay
[2] = molecular target: T1, human low-density lipoprotein receptor fused with RFP, on CHO-hLDLR-RFP cells (human, UniProt P01130 22-860); assay: competition on CHO-hLDLR-RFP cells: 10 uM test peptide against 10 uM SEQ ID NO: 17/STag, STag read by FRET
T1 construct: whole, on cells; also called human LDLR; not shown: red fluorescent protein (RFP) fused at the C-term (intracellular end)

[3] = molecular target: mouse LDLR in tissues of wild-type mice (mouse, UniProt P35951 22-862); assay: cell-based or functional assay
mouse LDLR in tissues of wild-type mice, sequence (P35951 22-862): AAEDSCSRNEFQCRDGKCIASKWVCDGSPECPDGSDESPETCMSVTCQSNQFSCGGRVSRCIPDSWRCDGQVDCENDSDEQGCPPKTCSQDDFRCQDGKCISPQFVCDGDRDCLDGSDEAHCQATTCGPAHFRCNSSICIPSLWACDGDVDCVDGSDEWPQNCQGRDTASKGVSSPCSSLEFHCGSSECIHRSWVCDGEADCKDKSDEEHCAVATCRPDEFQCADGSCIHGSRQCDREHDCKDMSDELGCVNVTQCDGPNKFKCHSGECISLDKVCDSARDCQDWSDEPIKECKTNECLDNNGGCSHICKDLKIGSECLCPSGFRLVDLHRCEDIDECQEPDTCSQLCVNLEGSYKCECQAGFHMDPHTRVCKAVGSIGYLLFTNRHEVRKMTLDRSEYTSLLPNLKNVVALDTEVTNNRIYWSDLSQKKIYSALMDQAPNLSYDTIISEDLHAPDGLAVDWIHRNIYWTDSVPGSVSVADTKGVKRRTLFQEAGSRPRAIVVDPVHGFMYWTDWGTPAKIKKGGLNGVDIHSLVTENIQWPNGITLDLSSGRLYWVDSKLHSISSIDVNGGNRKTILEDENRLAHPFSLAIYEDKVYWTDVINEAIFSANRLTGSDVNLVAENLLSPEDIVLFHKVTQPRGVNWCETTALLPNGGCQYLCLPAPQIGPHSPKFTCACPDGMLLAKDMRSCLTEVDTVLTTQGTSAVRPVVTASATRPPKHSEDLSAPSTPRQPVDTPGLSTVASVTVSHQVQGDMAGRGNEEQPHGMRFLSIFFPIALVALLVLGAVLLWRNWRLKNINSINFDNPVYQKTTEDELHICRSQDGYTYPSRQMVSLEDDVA

rat LDLR on rat brain capillary endothelial cells (RBCEC) (rat), sequence (P35952 22-879): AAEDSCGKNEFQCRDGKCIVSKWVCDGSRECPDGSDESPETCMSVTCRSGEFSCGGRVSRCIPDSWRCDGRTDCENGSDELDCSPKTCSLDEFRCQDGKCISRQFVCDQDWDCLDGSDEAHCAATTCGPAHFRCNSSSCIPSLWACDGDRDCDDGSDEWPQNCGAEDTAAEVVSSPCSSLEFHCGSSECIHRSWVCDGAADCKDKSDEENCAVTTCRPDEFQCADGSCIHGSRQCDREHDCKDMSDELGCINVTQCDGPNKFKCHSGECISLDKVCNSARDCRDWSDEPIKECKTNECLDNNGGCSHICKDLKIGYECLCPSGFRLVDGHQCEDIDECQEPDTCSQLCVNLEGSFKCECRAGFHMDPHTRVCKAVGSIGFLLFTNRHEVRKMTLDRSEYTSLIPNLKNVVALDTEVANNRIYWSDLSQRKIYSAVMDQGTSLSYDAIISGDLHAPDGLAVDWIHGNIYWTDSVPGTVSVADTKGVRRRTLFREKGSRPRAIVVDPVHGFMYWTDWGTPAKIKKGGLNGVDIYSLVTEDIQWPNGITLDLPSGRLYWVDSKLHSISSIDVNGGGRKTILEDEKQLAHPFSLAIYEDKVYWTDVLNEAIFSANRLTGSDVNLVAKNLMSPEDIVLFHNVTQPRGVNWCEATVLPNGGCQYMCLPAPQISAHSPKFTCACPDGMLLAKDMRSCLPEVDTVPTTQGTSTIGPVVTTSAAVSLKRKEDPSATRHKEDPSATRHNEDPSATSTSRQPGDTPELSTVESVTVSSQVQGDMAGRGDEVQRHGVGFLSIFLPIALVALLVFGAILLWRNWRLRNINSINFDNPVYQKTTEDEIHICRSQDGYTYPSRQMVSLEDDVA

Molecule: LDL made fluorescent by adsorption of DiI (ligand)
- saturation of the transport into the lower compartment of the in-vitro BBB model (WT) (µg per insert) [1]: 4

B1: peptide SEQ ID NO: 10 (peptide)
peptide: [dC]MPRLR[dA]C
modifications: disulfide 1-8 (inferred)
notes: also called (D)-cys-Met-Pro-Arg-Leu-Arg-(D)-ala-Cys
- Displacement of the control peptide [2]: 54%

B2: peptide SEQ ID NO: 5 radiolabelled using tritium (peptide)
peptide: XMXRLRGC
modifications: (D)-pen at 1; Thz at 3; tritiated, by the method of Example IX a tritiated propionyl group on the N-term amine
- peptide concentration in the adrenal glands, LDLR-KO mice compared to wild-type mice, 10 min after intravenous injection [3]: ~2 fold decrease
- peptide concentration in the intestine, LDLR-KO mice compared to wild-type mice, 10 min after intravenous injection [3]: ~6 fold decrease
- peptide concentration in the liver, LDLR-KO mice compared to wild-type mice, 10 min after intravenous injection [3]: ~5 fold decrease
